Measured values from article PMC3355305, “Localized Dimerization and Nucleoid Binding Drive Gradient Formation by the Bacterial Cell Division Inhibitor MipZ” (Molecular Cell, 2012).

System: C. crescentus cells
Assay: FRAP analysis of MipZ-YFP mobility
Format: cell-based, Caulobacter crescentus
Description: Due to their association with chromosomal DNA, MipZ dimers should display slower diffusion rates than monomers. To test this hypothesis, we monitored the mobility of wild-type and mutant MipZ-YFP fusions using fluorescence recovery after photobleaching (FRAP) analysis. […] Concurrent with the reappearance of fluorescence at the bleached pole, the intensity of the unbleached focus decreased, while the total integrated fluorescence remained constant within the cell.
Figure 5 FRAP Analysis of MipZ Diffusion (A and C) FRAP experiments on cells producing a wild-type MipZ-YFP fusion (A) or a MipZ-D42A fusion (C). Cells of strain MT177 (WT) or MT197 (D42A) were shifted from M2GN to M2G medium containing 0.3% xylose and cultivated for another 4 hr to deplete wild-type MipZ and synthesize the indicated fusion protein instead. Single polar MipZ-YFP foci were photo-bleached (white circles), and recovery was followed by fluorescence microscopy (scale bars represent 2 μm). (B, D, and E) Quantification of the recovery rate in cells producing YFP fusions to wild-type MipZ (MT177) (B), MipZ-D42A (MT197) (D), and MipZ-G14V (MT178) (E). FRAP experiments were performed as described in (A). The graphs show the average relative integrated intensities of the bleached region, an unbleached region of equal size at the opposite pole, and the remaining area of the cell plotted as a function of time. The recovery half-times (t1/2), as determined by fitting of the data to single-exponential functions (red lines), are given on top of the graphs. […] (F) Quantification of the recovery rate of MipZ-YFP in cells depleted of ParB. Strain MT148 was grown in M2G medium for 15 hr and analyzed as described in (B), (D), and (E). […] The recovery half-time measured before depletion of ParB was 11.8 s (±1.2 s; n = 34) (data not shown). See also Figure S6. […] It is uncertain whether they count as substance results. / All panels: the lowered sign after t is very small and is read as ½.
Figure S6. Fluorescence-recovery-after-photobleaching analysis of MipZ mobility, Related to Figure 5.
(A) Representative images of FRAP experiments on cells producing mutant MipZ-YFP fusions. Cells of strains DK2 (K13A), MT178 (G14V) and MT179 (K18Q), which express wild-type mipZ under the control of the ammonium-repressible PnrtX promoter and the indicated mipZ-eyfp allele under the control of the xylose-inducible Pxyl promoter, were shifted from M2GN to M2G medium containing 0.3% xylose and cultivated for another 4 h to deplete wild-type MipZ and synthesize the fusion protein instead. Single polar regions were photo-bleached, and recovery was followed by fluorescence microscopy (bars: 2 µm). The bleached regions are highlighted by circles.
(B) Cells of strain MT177 (ΔmipZ PnrtX::mipZ Pxyl::mipZ-eyfp) were grown as described in (A). Chloramphenicol (20 µg/ml) was added to the growing culture 25 min prior to harvest as well as to the agarose pads used for the FRAP experiments. Fitting of the data to a single exponential equation yielded a recovery half-time of 12.4 s (± 0.5 s).
(C) Cells of strain MT97 (mipZ-eyfp) were grown in M2G medium and subjected to FRAP analysis. The fitted curve corresponds to a recovery half-time of 12.0 s (± 1.2 s).
(D and E) Cells of strains (D) DK2 (ΔmipZ PnrtX::mipZ Pxyl::mipZK13A-eyfp) and (E) MT179 (ΔmipZ PnrtX::mipZ Pxyl::mipZK18Q-eyfp) were grown as described in (A) and subjected to FRAP analysis. […]

B1: MipZ: P loop ATPase and cell division inhibitor of Caulobacter crescentus; hexahistidine-tagged in vitro, YFP fusion in FRAP (protein)
chain: MAETRVIVVGNEKGGAGKSTIAVHLVTALLYGGAKVAVIDLDLRQRTSARFFENRRAWLDNKKIELPEPLALNLSDNDVALAERPEEEQVAGFEAAFARAMAECDFILIDTPGGDSAITRMAHGRADLVVTPMNDSFVDFDMLGTVDPVTLELTKPSLYSLTVWEGRKQRALSGQRQAMDWVVLRNRLATTEARNRKRLEDRLNALAKRVGFRIGPGLRDRVIYRELFPFGLTIADLSPQVRPVPVSLQHLAARQELRALMHSLGLSAYSGETMLAAQ
modifications: left off: His6, end not stated, state not stated
notes: hexahistidine-tagged in vitro, YFP fusion in FRAP
- recovery half-time (t1/2) (MipZ-YFP in cells depleted of ParB (strain MT148)): 3.2 s
- recovery half-time (t1/2) (YFP fusion, xylose-induced, cells depleted of wild-type MipZ, polar region bleached): 10.7 s
- recovery half-time (strain MT97 (mipZ-eyfp), M2G medium, not inducible promoter): 12.0 s
- recovery half-time (strain MT148 before depletion of ParB): 11.8 s
- recovery half-time (strain MT177, chloramphenicol 20 µg/ml): 12.4 s
